Measured values as given in patent US20150141622A1 (published 2015).

Target: T1, mature form of human VEGF-C (human, UniProt P49767 103-227)
T1 sequence: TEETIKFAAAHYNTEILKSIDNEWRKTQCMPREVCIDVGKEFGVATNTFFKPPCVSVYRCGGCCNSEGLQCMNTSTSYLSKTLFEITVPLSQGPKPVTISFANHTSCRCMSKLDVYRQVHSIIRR
Assay: cell-based or functional assay

Question: How did the VEGF-C dependent viability (Ba/F3 VEGFR-3/EpoR, MTT) (fold molar excess) turn out when VEGFR-2-Ig (Fc fusion) was run?
Answer: 10

B1: VEGFR-3-Ig fusion protein (first three Ig-homology domains of VEGFR-3 and IgG Fc domain) (Fc fusion, not shown: a dimerising Fc or GST)
chain: YSMTPPTLNITEESHVIDTGDSLSISCRGQHPLEWAWPGAQEAPATGDKDSEDTGVVRDCEGTDARPYCKVLLLHEVHANDTGSYVCYYKYIKARIEGTTAASSYVFVRDFEQPFINKPDTLLVNRKDAMWVPCLVSIPGLNVTLRSQSSVLWPDGQEVVWDDRRGMLVSTPLLHDALYLQCETTWGDQDFLSNPFLVHITGNELYDIQLLPRKSLELLVGEKLVLNCTVWAEFNSGVTFDWDYPGKQAERGKWVPERRSQQTHTELSSILTIHNVSQHDLGSYVCKANNGIQRFRESTEVIVHE
Question: For B1, which “VEGF-C-dependent cell survival (Ba/F3 VEGFR-3/EpoR, MTT)” value is on record?
Answer: 0.5 molar ratio (VEGFR-3-Ig:VEGF-C)
